Substitutions are numbered along the chain they refer to. In names and notes the source's numbering stands.
B1: (S)-ureidoglycolate dehydrogenase (AllD) (Escherichia coli K-12; Y52F) (protein)
chain: MKISRETLHQLIENKLCQAGLKREHAATVAEVLVYADARGIHSHGAVRVEYFAERISKGGTNREPEFRLEETGPCSAILHADNAAGQVAAKMGMEHAIKTAQQNGVAVVGISRMGHSGAISYFVQQAARAGFIGISMCQSDPMVVPFGGAEIYYGTNPLAFAAPGEGDEILTFDMATTVQAWGKVLDARSRNMSIPDTWAVDKNGVPTTDPFAVHALLPAAGPKGYGLMMMIDVLSGVLLGLPFGRQVSSMYDDLHAGRNLGQLHIVINPNFFSSSELFRQHLSQTMRELNAITPAPGFNQVYYPGQDQDIKQRKAAVEGIEIVDDIYQYLISDALYNTSYETKNPFAQ
notes: full length, modified pET28b with N-terminal His-tag and TEV site, expressed in E. coli BL21(DE3); tag cut for crystals, kept on mutant enzymes for kinetics; homodimer
B2: (S)-ureidoglycolate dehydrogenase (AllD) (Escherichia coli K-12; S43A) (protein)
chain: B1 chain with S43A, F52Y
notes: as for B1
B3: (S)-ureidoglycolate dehydrogenase (AllD) (Escherichia coli K-12; D141A) (protein)
chain: B1 chain with F52Y, D141A
notes: as for B1
B4: (S)-ureidoglycolate dehydrogenase (AllD) (Escherichia coli K-12; R259A) (protein)
chain: B1 chain with F52Y, R259A
notes: as for B1
B5: (S)-ureidoglycolate dehydrogenase (AllD) (Escherichia coli K-12; D141N) (protein)
chain: B1 chain with F52Y, D141N
notes: as for B1
B6: (S)-ureidoglycolate dehydrogenase (AllD) (Escherichia coli K-12; M251A) (protein)
chain: B1 chain with F52Y, M251A
notes: as for B1
B7: (S)-ureidoglycolate dehydrogenase (AllD) (Escherichia coli K-12; H44A) (protein)
chain: B1 chain with H44A, F52Y
notes: as for B1
B8: (S)-ureidoglycolate dehydrogenase (AllD) from Escherichia coli (enzyme, Escherichia coli str. K-12 substr. DH10b, UniProt P77555 1-349, looked up)
chain: B1 chain with F52Y
notes: (S)-ureidoglycolate dehydrogenase AllD, product of the allD gene of E. coli str; K-12 substr; DH10b; ordered residues in the crystals Met1 to Tyr337/Asn338 (subunit A); Homodimer; Cloned into a modified pET28b with a TEV site between the His-tag and the multicloning sites; also called EC 1.1.1.154; not shown: His-tag, N-terminal, cleaved
B9: (S)-ureidoglycolate dehydrogenase (AllD) (Escherichia coli K-12; D141E) (protein)
chain: B1 chain with F52Y, D141E
notes: as for B1
B10: (S)-ureidoglycolate dehydrogenase (AllD) (Escherichia coli K-12; S140A) (protein)
chain: B1 chain with F52Y, S140A
notes: as for B1

What was measured:
[1] = biological target: T1, (S)-ureidoglycolate dehydrogenase (AllD) (Escherichia coli, UniProt P77555); test: X-ray crystal structure, soaking, […] Å; assay type: binding; conditions: ternary complex with NADH; soaked with 7.5 mM oxalurate reaction mixture, glyoxylate modelled in subunit A only, pH 8.1
T1 construct: full length, modified pET28b with N-terminal His-tag and TEV site, expressed in E. coli BL21(DE3); tag cut for crystals, kept on mutant enzymes for kinetics; homodimer

[2] = biological target: T1, (S)-ureidoglycolate dehydrogenase (AllD); test: X-ray crystal structure, soaking, […] Å; assay type: binding; conditions: 100 mM NADH soak, pH 8.1; one NADH in each subunit; site includes residues of the other subunit
[3] = substrate: NC(=O)N[C@@H](O)C(=O)O; test: purified protein; assay type: biochemical, Escherichia coli; conditions: 3 mM NAD+ (saturating), 30 °C, value in parentheses is standard error
[4] = substrate: NC(=O)c1ccc[n+]([C@@H]2O[C@H](COP(=O)(O)OP(=O)(O)OC[C@H]3O[C@@H](n4cnc5c(N)ncnc54)[C@H](O)[C@@H]3O)[C@@H](O)[C@H]2O)c1; test: purified protein; assay type: biochemical, Escherichia coli; conditions: 15.3 mM (S)-ureidoglycolate, 30 °C, value in parentheses is standard error
[5] = biological target: the molecule itself; test: SEC; size-exclusion chromatography of AllD; conditions not described

T1 sequence (P77555 whole entry): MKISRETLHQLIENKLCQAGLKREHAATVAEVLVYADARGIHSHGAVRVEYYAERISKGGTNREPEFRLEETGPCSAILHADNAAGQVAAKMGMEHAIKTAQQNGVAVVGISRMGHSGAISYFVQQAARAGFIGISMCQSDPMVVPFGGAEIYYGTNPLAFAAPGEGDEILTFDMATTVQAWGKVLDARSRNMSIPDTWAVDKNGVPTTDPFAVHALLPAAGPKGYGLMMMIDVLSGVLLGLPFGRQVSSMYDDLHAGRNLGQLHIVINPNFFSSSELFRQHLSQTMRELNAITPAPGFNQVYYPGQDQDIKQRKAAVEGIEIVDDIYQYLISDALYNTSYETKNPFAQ

Molecule | Km ([3]; His-tag kept) | kcat ([3]; His-tag kept) | kcat/Km ([3]; His-tag kept) | other results
O=CC(=O)O [glyoxylate] | – | – | – | X-ray crystal structure, soaking, 1.77 Å [1]: 4FJU for the AllD-NADH-glyoxylate ternary complex
NC(=O)C1=CN([C@@H]2O[C@H](COP(=O)(O)OP(=O)(O)OC[C@H]3O[C@@H](n4cnc5c(N)ncnc54)[C@H](O)[C@@H]3O)[C@@H](O)[C@H]2O)C=CC1 [NADH] | – | – | – | X-ray crystal structure, soaking, 1.64 Å [2]: 4H8A for the AllD-NADH binary complex
B1 | 16.82 (3.92) mM | 1.92 s⁻¹ | 110 M⁻¹ s⁻¹ | –
B2 | 10.75 (1.01) mM | 1.37 s⁻¹ | 130 M⁻¹ s⁻¹ | –
B3 | 5.27 (0.46) mM | 1.62 s⁻¹ | 310 M⁻¹ s⁻¹ | –
B4 | 11.47 (1.25) mM | 12 s⁻¹ | 1040 M⁻¹ s⁻¹ | Km ([4]; His-tag kept): 1.49 (0.07) mM; kcat ([4]; His-tag kept): 9.29 s⁻¹; kcat/Km ([4]; His-tag kept): 6230 M⁻¹ s⁻¹
B5 | 5.84 (0.25) mM | 1.97 s⁻¹ | 340 M⁻¹ s⁻¹ | –
B6 | 13.15 (1.62) mM | 46 s⁻¹ | 3490 M⁻¹ s⁻¹ | –
B7 | 16.94 (2.04) mM | 1.76 s⁻¹ | 100 M⁻¹ s⁻¹ | –
B8 | – | – | – | Km [3]: 1.06 (0.08) mM; kcat [3]: 57.1 s⁻¹; kcat/Km [3]: 54300 M⁻¹ s⁻¹; Km [4]: 0.56 (0.04) mM; kcat [4]: 62.4 s⁻¹; kcat/Km [4]: 110000 M⁻¹ s⁻¹; stoichiometry N [5]: 2
B9 | 14.13 (2.37) mM | 1.67 s⁻¹ | 120 M⁻¹ s⁻¹ | –
B10 | 12.38 (2.19) mM | 1.29 s⁻¹ | 100 M⁻¹ s⁻¹ | –
